Data: the nanobody polyreactivity screen of Harvey et al. (2022)

Test: yeast display, Sf9 membrane polyspecificity reagent, FACS + sequencing; frameworks hold sequencing errors
Procedure, shortened: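 Polyreactivity labels are assigned by the sorting gate from which each nanobody was recovered. The gates were low and high (top ~1%), set on anti-HA fluorescence for expression and streptavidin fluorescence for reagent binding. Before sorting, galactose-induced (36–48 hours) yeast display cells were stained for 1 hour at 4 °C with 10% biotinylated, detergent-solubilized Sf9 membrane reagent.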

Row | Sequence | polyreactivity (PSR sort gate)
1 | QVQLVESGGGLVQAGGSLRLSCAASGRIFKYYTMGWYRQAPGKERELVARISSSGGSTYYADSVKGRFTISRDNAKNTVYLQMNSLKPEDTAVYYCNTRAAYHQTTHKYERDYWGQGSQVTVSS | low polyreactivity
2 | QVQLVESGGGLVQAGGSLRLSCAASGRIFLFYAMGWYRQAPGKERELVAAISSTDDTYYADSVKGRFTISRDNAKNTVYLQMNSLKPEDTAVYYSAAYSIISQSEMYYRGQGTQVTVSS | low polyreactivity
3 | QVQLVESGGGLVQAGGSLRLSCAASGRIFLFYAMGWYRQAPGKERELVAGIRSGGSTNYADSVKGRFTISRDNAKNTVYLQMNSLKPEDTAVYYCAAASYFVYPRLEGYWGQGTQVTVSS | low polyreactivity
4 | QVQLVESGGGLVQAGGSLRLSCAASGRIFLGNAMGWYRQAPGKERELVAAIDASGGSTYYADSVKGRFTISRDNAKNTVYLQMNSLKPEDTAVYYCAADRGFLRSFAPGNMDYWGQGTQVTVSS | low polyreactivity
5 | QVQLVESGGGLVQAGGSLRLSCAASGRIFLGNAMGWYRQAPWKESELVAAITNGGGSTSYADSVKGRFTISRDNAKNTVYLQMNSLKPEDTAVYYCARGYKKSVQRFEYRGQGTQVTVSS | high polyreactivity
6 | QVQLVESGGGLVQAGGSLRLSCAASGRIFLGNTMGCYRQAPGKERELVAAISKRGGSTYYVDSVKGRFTISRDNAKNTVYLQMNSLKPEDTAVYYCNAGPLYSGVYSGYYWGQGTQVTVSS | high polyreactivity
7 | QVQLVESGGGLVQAGGSLRLSCAASGRIFLGNVMGWYRQAPGKERELVAAISWSGGSTYADSVKGRFTISRDNAKNTVYLQMNSLKPEDTAVYYCNAELGSYDKDYDYWGQGTQVTVSS | low polyreactivity
8 | QVQLVESGGGLVQAGGSLRLSCAASGRIFLGYAMGRYRQAPGKERELVAAITFSGGSTYYADSVKGRFTISRDNAKNTVYLQMNSLKPEDTAVYYCAAPRLRRTYPRNRYDYWGQGTQVTVSS | low polyreactivity
9 | QVQLVESGGGLVQAGGSLRLSCAASGRIFLGYAMGWYRQPPGKVSELVAAINSVASTNYADSVKGRFTISRDNAKNTVYLQMNSLKPEDTAVYYCAAVYFLVQSDLPAYDYWGQGTLVTVSS | low polyreactivity
10 | QVQLVESGGGLVQAGGSLRLSCAASGRIFLKYAMGWYRHAPGKERELVAAISLSTGSTYYADSVKGRFTISRDNAKNTVYLQMNSLKAEDTAVYYCAATRKYRYVYWGQGTQGTVSS | high polyreactivity
11 | QVQLVESGGGLVQAGGSLRLSCAASGRIFLKYTMGWYRQAPGKERELVAAISRGGSTYYADSVKGRFTISRDNAKNTVYLQMNSLKPEDTAVYYCAARRSRPTYYSTGVNYWGQGTQVTVSS | high polyreactivity
12 | QVQLVESGGGLVQAGGSLRLSCAASGRIFLPYAMGWYRQAPGKERELVAAIDTNGGSTYYADSVKGRFTISRDNAKNTVYLQMNSLKPEDSAVYYCAAEVYDYTYVVTFLYDYWGQGTQVTVSS | high polyreactivity
13 | QVQLVESGGGLVQAGGSLRLSCAASGRIFLPYAMGWYRQAPGKERELVAAITQSGVITSYADSVKGRFTISRDNAKNTVYLQMNSLKPVDTAVYYCATVRTVIVFRFPYSYGYWGQGTQVTVSS | high polyreactivity
14 | QVQLVESGGGLVQAGGSLRLSCAASGRIFLRNAMGWYRQAPGKERELVAAISRRGATTYYADSVKGRFTISRDNAKNTVYLQMNSLKPEDTAVYYCAKRVWETDYDYWGQGTQVTVSS | high polyreactivity
15 | QVQLVESGGGLVQAGGSLRLSCAASGRIFLRNAMGWYRQAPGKERELVAGINSGGSTYYADSVKGRFTISRDNAKNTVYLQMNSLKPEDTAVYYCAADDGNFLSEDRDSYYGYDYWGQGTQVTVSS | low polyreactivity
16 | QVQLVESGGGLVQAGGSLRLSCAASGRIFLSYAMGWYRQAPGKERELVAGITWNGGSTYYADSVKGRFTISRDNAKNTVYLQMNSLKPEDTAVFYCAADYFGFSYAGYNYWGQGTQVTVSS | low polyreactivity
17 | QVQLVESGGGLVQAGGSLRLSCAASGRIFLSYAMGWYRQAPGKERELVAGITWNGGSTYYADSVKGRFTISRDNAKNTVYLQMNSLKPEDTAVYYCAATRFSYVFPYRYDYWGQGTQVTVSS | low polyreactivity
18 | QVQLVESGGGLVQAGGSLRLSCAASGRIFLTYAMGWYRQAPGKERELVAAITRRGGRTNYADSVKGRFTISRDNAKNTVYLQMNSLKPEDTAVYYCAKSPWPSHLDYDYWGQGTQVTVSS | low polyreactivity
19 | QVQLVESGGGLVQAGGSLRLSCAASGRIFLTYVMGWYRQAPGKERELVAAITSSGGTTYYADSVKGRFTISRDNAKNTVYLQMKSLKPEDTAVYYCNAGSSYQYGPRYNYWGQGTQVTVSS | low polyreactivity
20 | QVQLVESGGGLVQAGGSLRLSCAASGRIFLVYAMGRYRQAPGKERELVAAITSDGRTYYADSVKGRFTISRDNAKNTVYLQMNSLKPEDTAVYYCAADRYGAGYLYWPYDYWGQGTQVTVSS | low polyreactivity
21 | QVQLVESGGGLVQAGGSLRLSCAASGRIFLYNAMGSYRQAPGKVRELVASISSGVTTNYADSVKGRFTISRDNAKKTVYLQMNSLKPEDTAVYYCAADGQYSVIVKYDSWGQGTQVTVSS | low polyreactivity
22 | QVQLVESGGGLVQAGGSLRLSCAASGRIFLYNAMGWYRQAPGKERELVAAITASGGTTYYADSVKGRFTISRDNAKNTVYLQMNSLKPEDNAVYYCNAYSYSGERYYWGQGTQVTVSS | high polyreactivity

Row | Sequence | polyreactivity (PSR sort gate)
23 | QVQLVESGGGLVQAGGSLRLSCAASGRIFLYNVMGWYRQAPGKERELVAAISWSGTRTYYADSVKGRFTISRDNAKNTVYLQMNSLKPEDTAVYYCNACRYYRHDYWGQGTQVTVSS | low polyreactivity
24 | QVQLVESGGGLVQAGGSLRLSCAASGRIFLYYAMGWYRQAPGKERELVATISSGGSTTYADSVKGRFTISRDNAKNTVYLQMNSLKPEDTAVYYCATQVPGYSGRYDYWGQGTQVTVSS | low polyreactivity
25 | QVQLVESGGGLVQAGGSLRLSCAASGRIFLYYTMGWYRQAPGKERELVADITWRGGYTYYADSVKGRFTISRDNAKNTVYLQMNSLKPQDTAVYYFNAVSVSYKRSDYWGQGTQVTVSS | low polyreactivity
26 | QVQLVESGGGLVQAGGSLRLSCAASGRIFNAYAMGWYRQAPGKERELVAAITDDGGTNYADSVKGRFTISRDNAKNTVYLQMNSLKPEDTAVYYCAATYLIGYYYVWEYDYWGQGTQVTVSS | low polyreactivity
27 | QVQLVESGGGLVQAGGSLRLSCAASGRIFNAYAMGWYRQAPGKERELVATISWRTGSTYYADSVKGRFTISRDNAKNTVYLQINSLKPEDTAVYYCNAKVGSYGAQGYRFAYNYWGQGTQVTVSS | high polyreactivity
28 | QVQLVESGGGLVQAGGSLRLSCAASGRIFNDYTMGWYRPAPGKERELVAAITNRDTSTSYADSVKGRFTISRDNAKNTVYLQMNSLKPEDTAVYYCNAQQVIVVYRPGDYWGQGTQVTVSS | low polyreactivity
29 | QVQLVESGGGLVQAGGSLRLSCAASGRIFNFYAMGWYRQAPGKEWELVAAITNGGGTKYADSVKGRFTISRDNAKNTVYLQMNSLKPEDTAVYYCAARYYRRQRGQTSHSRFGYWGQGTQVTVSS | high polyreactivity
30 | QVQLVESGGGLVQAGGSLRLSCAASGRIFNIYAMGWYRQAPGKERELVAAISVSGTRTYYADSVKGRFTISRDNAKNTVYLQMNSLKPEDTAVYYCAADSYGGDWTEHMYYWGQGTQVTVSS | low polyreactivity
31 | QVQLVESGGGLVQAGGSLRLSCAASGRIFNKYVMGWYRQAPGKERELVAAISGRGGSTYYADYVKGRFTISRDNAKNTVYLQMNSLKPEDTAVYYCAARYGYYTSDYKYYDWGQGTQVTVSS | high polyreactivity
32 | QVQLVESGGGLVQAGGSLRLSCAASGRIFNPYAMGWYRKAPGKERELVAAISRGGRTYYADSVKGRFTISRDNAKNTVYLQMNSLKPEDTAVYYCAKLPSRRWAYDYWGQGTQVTVSS | high polyreactivity
33 | QVQLVESGGGLVQAGGSLRLSCAASGRIFNQYGMGWYRPAPGKERELVAAIRSGDSTNYADSVKGRFTISRDNAKNTVELQMNSLKPEDTAVYYCARDRPGDYAGYDYWGQGTQVTVSS | low polyreactivity
34 | QVQLVESGGGLVQAGGSLRLSCAASGRIFNQYGMGWYRPAPGKERELVAAIRYGDSTNYADSVKGRFTISRDNAKNTVYLQMNSLKPEDTAVYYCARDPAGDYAGYDYWGQGTQVTVSS | low polyreactivity
35 | QVQLVESGGGLVQAGGSLRLSCAASGRIFNRYAMGWYRQAPGKEREFVAGITWNGGSTYYADSVKGRFTISRDNAKNTVYLQMNSLKPEDTAVYYCAATHYYYGTSRYDYWGQGTQVTVSS | high polyreactivity
36 | QVQLVESGGGLVQAGGSLRLSCAASGRIFNSYAMGWSRQAPGNERELVAAISSGGSTYYADSVKGRFTISRDNAKNTVYLQMNSLKPEDTAVYYCAARIWTGRGRKLGYGYDYWGQGTQVTVSS | low polyreactivity
37 | QVQLVESGGGLVQAGGSLRLSCAASGRIFNVYAMGWYRPAPGTERELVAAIRRRGDRTYYADSVKGRFTLSRDNAKNTVYLQMNSLNPEDTADYYCAKSQSAKGGYDYWGQGTQVTVSS | high polyreactivity
38 | QVQLVESGGGLVQAGGSLRLSCAASGRIFNYNAMGWYRQAPGKERELVAAIDWSGGRTYYADSVKGRFTISRDNAKNTVYLQMNSLKPEDTAVYYCNTVGYSLRLRTGGYWGQGTQVTVSS | high polyreactivity
39 | QVQLVESGGGLVQAGGSLRLSCAASGRIFNYNAMGWYRQAPGKERELVATITRGGNTYYADSVKGRFTISRDNAKNTVYLQMNSLKPEDTAVYYCNAAWWKVSYVRQKYYYWGQGTQVTVSS | high polyreactivity
40 | QVQLVESGGGLVQAGGSLRLSCAASGRIFNYNAMGWYRQAPGKERELVATITYSDATTYYADSVKGRFTISRDNAKITVYLQMNSLKPEDTAVYYCNAPSRSYDRYISAGRRYDYWGQGTQVTVSS | low polyreactivity
41 | QVQLVESGGGLVQAGGSLRLSCAASGRIFNYNAMGWYRQAPGKERELVAVITSGDSTNYADSVKGRFTISRDNAKNTVYLQMNSLKPVDTAVYYCAAEYYSIRYGPNSIEVYGMDYWGQGTQVTVSS | low polyreactivity
42 | QVQLVESGGGLVQAGGSLRLSCAASGRIFPAYAMGWYRQAPGKERELVAAITWTGGRTYYADSVKGRFTISRDNAKNSFYLQMNILKPEDTAVYYCAKAPARSRGYEYWGQGTQVTVSS | low polyreactivity
43 | QVQLVESGGGLVQAGGSLRLSCAASGRIFPAYVMGWYRQAPVKERELVATIDNGGGTYYADSVKGRFTISRDNAKNTVYLQMNSLKPEDTAVYYCARDRHVRWGLKMDYWGLGTQVTVSS | low polyreactivity
